How the values were obtained:
Test in all cases: sVNT, Table 2
[1] = molecular target: SARS-CoV-2 spike trimer, XBB (SARS-CoV-2)
[2] = molecular target: SARS-CoV-2 spike trimer, XBB.1.5 (SARS-CoV-2)
[3] = molecular target: SARS-CoV-2 spike trimer, BQ.1 (SARS-CoV-2)
[4] = molecular target: SARS-CoV-2 spike trimer, XBB.1 (SARS-CoV-2)
[5] = molecular target: SARS-CoV-2 spike trimer, BQ.1.1 (SARS-CoV-2)

Measured: IC50

Bebtelovimab (antibody)
> 1 µg/mL: all assays above
